From the nanobody polyreactivity screen of Harvey et al. (2022)

Test: yeast display, Sf9 membrane polyspecificity reagent, FACS + sequencing; frameworks hold sequencing errors
How it was run: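 Galactose-induced (36–48 hours) yeast carrying a synthetic nanobody display library were exposed to 10% biotinylated, detergent-solubilized Sf9 membrane reagent at 4 °C for 1 hour. FACS followed streptavidin microbead enrichment, using low and high (top ~1%) gates for expression (anti-HA) and reagent binding (streptavidin). Colony PCR, MiSeq 2 × 250 sequencing and CDR-length filtering followed. Labels for polyreactivity reflect the gate of origin.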

Sequence | polyreactivity (PSR sort gate)
QLQLVESGGGLVQAGGSLRLSCAASGRIFQDNPKGWYRPPPSKERELVAAISISGGITYYADSVKGRFTISRDNAKNTVYLQMNSLKPEDTAVYYCNKSISARLPGRYDYWGQGTQVTVSS | low polyreactivity
QLQLVESGGGLVQAGGSLRLSCAASGRIFVLYTMGRNRQATGKERELVAAISNVGSTNYADSVKGRFTISRDNAKYTVYLQMNSLIPEDTAVYYCNDRRRYGWHLYYYWGQGTQVTVSS | high polyreactivity
QLQLVESGGGLVQAGGSLRLSCAASGRIFVRYAMGWYRQAPGKERELVAAISGRGTSTYYADSVKGRFTISRDNAKNTVYLQMNSLKPEDTAVYDCNTFSQPKWGTSDYDYWGQGTQVTVSS | high polyreactivity
QLQLVESGGGLVQAGGSLRLSCAASGRIYLYAMGWSRQAPGKERELVAAITTRAGRTYYADSVKGRFTISRDNAKNTVYFQMNSLKPEDTAVYYCAADGTRYPAYGYWGQGTQVTVSS | low polyreactivity
QLQLVESGGGLVQAGGSLRLSCAASGRTFRSYTMGRYRQAPGKERELVASITRSGVSTYYADSVKGRFTISRDNAKNTVYLQMNSLKPEDTAVYYCAAYSVFRSYDYWGQGTQVTVSS | high polyreactivity
QLQLVESGGGLVQAGGSLRLSCAASGSIFGDNAMGWYRQAPGKERELVAAISSSGGSTYADSVKGRFTISRDNAKNTVYLQMNSLKPEDTAVYYCATQIAWGTYVINPQMDYWGQGTQVTVSS | low polyreactivity
QLQLVESGGGLVQAGGSLRLSCAASGSIFGPYARGWYRQAPGKERELVAAITDGGGSTYYADSVKGRFTISRDNAKNTVYLQMNSLKPEETAVDYCAADHSSKSGPADTFYWFDYWGQGTQVTVSS | low polyreactivity
QLQLVESGGGLVQAGGSLRLSCAASGSILTINAMGWYSQAPGKERELVAAITGNGGSTDYADSVKVRFTISRDNAKNTVYLQMNSQKPEDTAVYYCAARVRGTGVYGGYNYWGQGTQVTVSS | high polyreactivity
QLQLVESGGGLVQAGGSLRLSCAASGSTFDTYAMGWYRHAPGKERELVAGINTDGDNTYYADSVKGRFTISRDNAKNTVYVQMNSLKPEDTAVYYCAARFYRASGRTPSYRGHHYDYWGQATQVTVSS | low polyreactivity
QLQLVESGGGLVQAGGSLRLSCAASGSTFRNNAMGWYRQAPGKERELVAAISRGGGSTYYADSVKWRFTISRDNAKNTVYLQMNSLKPDDTAVYYCARRPTGIYDYWGQGTQVTVSS | high polyreactivity
QLQLVESGGGLVQAGGSLRLSCAASGSTFRWYAKGWYRQAPGKERELVAAISYSGGRTYYADSVKGRFTISRDTAKNTVYLQMNSLKPEDTAVYYCAADYVESKSLLEYWGQGTQVTVSS | low polyreactivity
QLQLVESGGGLVQAGGSLRLSCAASGSTFRYYAMGWYRQAPGKERELVAAISRTGGSTYYADSVKVRFTISRDNAKNTVYLQMNSLKPEDTAVYYCNVRQFLNRYTSWDYRYHYDYWGQGSQVTVSS | high polyreactivity
QLQLVESGGGLVQAGGSLRLSCAASGSTFSYNAMGWYRQAPWKERELVAAISGSGGTTYYADSVKVRVTISRDNAKNTVYLQMNSLKPEDTAVYYCAARPFRSWRYDYWGQGSQVTVSS | low polyreactivity
QLQLVESGGGLVQAGGSLRLSCAASGSTQGVYAMGSYRQAPGKERELVAAISRSGGRTYYADSVKGRFTISRDNAKNTVYLQMNSLKPEDTAVYYCAADYYLWVYWYDYWGQGTQVTVSS | high polyreactivity
QLQLVESGGGLVQAGGSLRLSCAASGTIFDTYAMGWSRQAPGKEMELVAAIRWTGGSTYYADSVKGRFTISRENAKNTVYFQMNSLKPEDTAVYYCAATWYYHYNDWKPWFEYGYWGQGTQVTVSS | low polyreactivity
QLQLVESGGGLVQAGGSLRLSCAASRSTFKYYAMGWYRQAHGKERELVAAISRRGGSTYYADSVKGRFTISRDNAKNTVYLQMNSLKPEDTAVYYCAADIIRPVTVDYWGQGTQVTVSS | high polyreactivity
QLQLVESGGGLVQAGGSLRLSCAATGFIFRYYVMGWYRQAPGKERELVAAITSGSTYADSVKGRFTISRDNAKNTVYLQMISLKPEDTAVYYCAAVKSQRGGPYSRGGKFGYWGQGTQVTVSS | high polyreactivity
QLQLVESGGGLVQAGGSLRLSSAASGIIRVNAMGWNIQAPGKQRELVATITNVGSTNYADSVKGRFTISRDNAKNTVYLQMNSLKPEDTAVYYCAAEYDGPFYSFYPEQRYYWGQGTQVTVSS | low polyreactivity
QLQLVESGGGLVQAGGSLRVSCAASGSIFLRYAMGWYRQAAGKERELVAAITSSGGSTYYADSVKGRFTISRDNAKNTVYLQMNSLKPEDTAVYYCNRYSYLFPYYWKYDYWGQGTQVTVSS | high polyreactivity
QLQLVESGGGLVQSGGSLRLSCAASGRTFDWYTKGWYRQAPGKERELVAAITSGGTTNYADSVKGRFTISRDNAKNTVYLQMNSLKPEDTAVYYCAKDEGEGYDYWGQGTQVTVSS | low polyreactivity
QLQLVESGGVLDQAGRSLRLICAASVIIFRGYAKGRSRQAHGKERELVAAISRSGGRTYYADSVKGRFTISRDNAKKTVYLQRNSLKTEDTAVYYCAPQWLYLEYDYWGQGTQVTVSS | high polyreactivity
QLQLVESGRGLVQAGGSLRLSCAGSGFIVGYNAMGSYRQAPGKDRELVAAISSGGSTYYADSVKGRFTISRVNAKNTVYLQMNSLKPEDTAVYYCAVELGYPIQSYALWWDFEYWGQGTQVTVSS | low polyreactivity

Sequence | polyreactivity (PSR sort gate)
QLQLVESLRGLVQAGGSLRLSCAASVSIIGPNAMGLYRQATGKERELVAAITLSGGSTYYADSVKGRFTISRDNAKNTVYLQMNSLKPEDTAVYYCNADLLPADAPLWVTGGDYWGQGTQVTESS | low polyreactivity
QLQLVESRGGLVQSGGSLRLSCAASGRIFWRYAMGWYRQAPGNERELVAAISGRSGSTYYADSVKGRFTISRDNAKNTVYLLMNSLKAEDTAVYYCAAKYGTLRYDYWGQGTQVTVSS | high polyreactivity
QLQLVESVGGLVQAGGSLRLSCAPSGSTFYWNAMGWYRQAPGKERELVAVITSSGTRTYYADSVKGRFTISRDNAKNTVYLQMNSLKPEDTEVDYCAKRETYTGPNSRYGQWKKVYYWGQGTQVTVSS | low polyreactivity
QLQPVESGGGLVQAGGSLRLSSAASGSTFVSYDRGWYRQAPGKERALVAVITSGGSTNYADSVKGRFTISRDNAKNTVYLQMNSLKPEETAVYYCAKRRYGRSGGSRYHYWGQGTQVTVSS | high polyreactivity
QLQRVESGGGLVQAGGSLRLSCAASGSTFYPNAMGWYRQAPAKEREFVAAISTSAGRTYYADSVKGRFTISRDNAKNTVYLQMNSLKPEDTAVYYCNARYWVYYVYEYDSWGQGTQVTVSS | low polyreactivity
QVELQVSGGGLVRAGGSLRLSCAASGNIFDADIMGWYRQAPGKERELVASITGGGSTSYAESAKGRFTISRDNAKNAVYLQMKSLKPEDTAVYYCARDSWWYHHYDYWGQGTQVTVSS | low polyreactivity
QVELQVSGGGLVRAGGSLRLSCAASGNIFDADIMGWYRQAPGKERELVASITGGGSTSYAESAKGRFTISRDNAKNAVYLQMNSLKPEDTAVYYCARDSWWYHHYDYWGQGTQVTVSS | low polyreactivity
QVELVASGGGLVQAGGSLRLSCAASGSTFAANAMGWYRQAPGKERELVAAITSGGGSTYYADSVKGRFTISRDNEKITVYLQMNSLKPEDTAVYYCAALQSHGVDYDYWGLGTQVTVSS | low polyreactivity
QVELVESGGCLVQARGSLRLSCAGSGSIFYRNAMGWYRQAPGKERELVAAISSDGSTNYADSVKGRFTISRDNAKITVDLQMNSLIPEDTAVYYCAGPWTEILDYWGQGTQVTVSS | low polyreactivity
QVELVESGGGLVQAGGSLRLSCAASGSTFFKYDMGWYRQAPGKERELVAVITWSGGTTFYADSVKGRFTISRDNAKNTVYLQMNSLKPEDTAVYYCAADYYGYRYDYWGQGTQVTVSS | low polyreactivity
QVHHVESGGGLVQAGGSLRLSCAASGFIIPYYAMGWYRPAPGKERELVAAISWSGSNTYYADSVKGRFTISRDNAKNTVYLQMNSLKPEDTAVYYCAARYSVYYFVQRNGRYGYWGQGTQVTVSS | high polyreactivity
QVHHVESGGGLVQAGGSLRLSCAASGLILVPNTMGWYRQAPGKERELVAAISYSGGGTYYADSVKGRFTISRDNAKNNVYLQMNSLKPEDTAVYYCAAYVKRESAPYGYWGQGTQVTVSS | low polyreactivity
QVHLEESGGGLVQAGGSLRLSSAASGFTFRSNAMGWYRQAPGKERELVAAITSRGGSTYYADSVKGRFTISRDYAINTVYLQMNSLKPEDTAVYYGAADGRSRKFDYWGQGTQVTVSS | high polyreactivity
QVHLGETGGGLVQAGGSLRLSCAASGSIFSSYAMGWYRQAPGKETELVATITRGGRTSYADSVKGRFTISRDNAKNTVYLQMNSLKPEDTAVDYCAADLYDNVGEFNYWGEGTQVTVSS | low polyreactivity
QVHLLESWGGLFHAGGSPRLSCAASGRTFGRYAMGWYRQSPATERELVAAITFRGGHSYYADSVKGRFTISRDNAKNTVYFQMNSLKPEDTAVYYCAKRGGYWHKFDYWGQGTQVTVSS | high polyreactivity
QVHLQECGDGLVQALGSQRLSCAARCYISGYYYMGWYRQAPGKERELVAGIDAFGSSTNYADCVKGRFTISRYNAKNTVYLQMKSLKPEDTALYYCAARPDGDRLFSYWGQGTQVTVFS | low polyreactivity
QVHLQESGGGLEQAGGSPRLSCAASDNIFPDSVMCWYRQAPGKERELVATIGFGATTNYADSVKGRFTISRDNAKKTVFLQMNSLKPEDTAVYYCAADTLNYEYFCYWGQGTQVTVRS | low polyreactivity
QVHLVDSAGGLVQAGGSLRLSCSASGSTFAVYAMGWYRQAPGKERELVAAISSSGDRTYYADSVKGRFTFSRDNAKNTVYLQMNILKPEDTAVYYCAVAIGYVYKTYYYWGQGTQVTVSS | high polyreactivity
QVHLVDSGGCLVQAGGSLRLSCAASGRTFSAYAMGWYRQAPGKEREVVAAISRSGGSTYYADSVKGRFTISRDNAKNTVYLPMNSLTPEDTAVYDCAVRWPSARIPVKLEDWGQGTQVTVSS | high polyreactivity
QVHLVDSGGGLVQAGGILRLSCAASGRIFVNTMGCYRQAPGKEMELVAAITRSGVSTYYADSVKGRFTISRDNAKNTVYLQMNSLKPEDTAVYYCAAREWSGPKIYPPYRYNSWGQGTQVTVSS | high polyreactivity
QVHLVDSGGGLVQAGGRLRLSCPASVSTFYYYVKGWYRQPPGKERELVAAISSGCHTNYADSVKGRFTISRDNAKNTVYLQMNSLIPEDSAVYYCAAKPRRGTLLRYGYWGQGTQVTVSS | high polyreactivity
